± gives the standard deviation of the averaged measurements.
Each sequence was assayed on Saccharomyces cerevisiae (assay: protein stability index of tFT-peptide fusion (C-terminal peptide) (PSI (0-1 scale)); higher = more stable (slower turnover)). Conditions: genetic background: wild type; temperature: 30 C.
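Further: PSI is a weighted mean of sequencing reads over stability bins, variants kept only with over 10 reads, mCherry proximal and sfGFP distal, peptide attached via GGGS linker.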

First: TPPATFCVPPPH
Second: TPPLARPSPTAL
The protein stability index of the first is higher: 0.719 ± 0.053 for the first, 0.534 ± 0.12 for the second.

TPPPLPSPAPRP and TPPPSPPQPLPP are within error of each other in protein stability index: 0.715 ± 0.062 for the first, 0.642 ± 0.043 for the second.

Going from TPPVPPHPRSLL to TPQLSYYKGNNL, the protein stability index falls from 0.774 ± 0.11 to 0.639 ± 0.013.

First: TPRPPPLPPRPP
Second: TPRPPQPGLSRT
The protein stability index of the first is lower: 0.603 ± 0.029 for the first, 0.67 ± 0.027 for the second.

Going from TPRRPPATPAPC to TPSSPSARHPPP, the protein stability index rises from 0.653 ± 0.025 to 0.715 ± 0.036.

TPTDPLSLYAFP and TPTSLRLSSLSP are within error of each other in protein stability index: 0.69 ± 0.013 for the first, 0.648 ± 0.036 for the second.

TPVLATAPQGQS and TPWQTREVTRAR are within error of each other in protein stability index: 0.71 ± 0.063 for the first, 0.691 ± 0.057 for the second.

TQGPTAPADPCS and TQSEHRTIPKSG are within error of each other in protein stability index: 0.67049 ± 0.00033 for the first, 0.663 ± 0.0089 for the second.

TQTLLQRTYREG and TRCLPPPVPPSL are within error of each other in protein stability index: 0.722 ± 0.09 for the first, 0.729 ± 0.014 for the second.

First: TRDVLWHCWVLS
Second: TRGAPHHSSGRG
The protein stability index of the first is lower: 0.514 ± 0.08 for the first, 0.693 ± 0.033 for the second.

TRLLAWGVVGLF and TRPHASPPPPPP are within error of each other in protein stability index: 0.633 ± 0.086 for the first, 0.695 ± 0.024 for the second.

TRPIGSPPSPAK and TRRPTPPSRASL are within error of each other in protein stability index: 0.702 ± 0.017 for the first, 0.718 ± 0.049 for the second.

TRSLPPELTPRR and TRSTKIVVEGSG are within error of each other in protein stability index: 0.705 ± 0.021 for the first, 0.736 ± 0.085 for the second.

TRVAYINRGETR and TRVKRQFRRGGI are within error of each other in protein stability index: 0.78 ± 0.2 for the first, 0.686 ± 0.011 for the second.

Going from TRYRQKRMSITT to TSASLFPLGPFR, the protein stability index rises from 0.581 ± 0.014 to 0.666 ± 0.02.

TSCIVVRGGRNG and TSDVGWVPAGSE are within error of each other in protein stability index: 0.6453 ± 0.0041 for the first, 0.656 ± 0.043 for the second.

TSETLLTLSTLT and TSHMKASANDTL are within error of each other in protein stability index: 0.669 ± 0.04 for the first, 0.687 ± 0.11 for the second.

Going from TSLFVAGRVWRS to TSLGSFLCGMCR, the protein stability index falls from 0.703 ± 0.014 to 0.6506 ± 0.0046.

First: TSLYGRDEETKV
Second: TSNRLDVDFPLS
The protein stability index of the first is lower: 0.599 ± 0.077 for the first, 0.699 ± 0.0087 for the second.

TSPAPYPRPPPT and TSPRILLPLNAT are within error of each other in protein stability index: 0.723 ± 0.036 for the first, 0.694 ± 0.014 for the second.

TSRKNRVKASVP and TSRSPLVAPNPS are within error of each other in protein stability index: 0.739 ± 0.039 for the first, 0.738 ± 0.083 for the second.

TSSTPNALARIP and TSWLHTCMKCSL are within error of each other in protein stability index: 0.71 ± 0.16 for the first, 0.728 ± 0.017 for the second.

Going from TSYRNNKAKNQS to TTGKEAQYEARK, the protein stability index falls from 0.756 ± 0.01 to 0.664 ± 0.071.

TTPYVRTSPRKP and TTQTYAPLTPHR are within error of each other in protein stability index: 0.654 ± 0.0091 for the first, 0.64 ± 0.097 for the second.

TTSKQHRPKQMN and TVAVCPKIDYSV are within error of each other in protein stability index: 0.708 ± 0.23 for the first, 0.667 ± 0.0085 for the second.

TVGKGCGGAEGG and TVGRILEVSRRG are within error of each other in protein stability index: 0.6439 ± 0.0029 for the first, 0.66 ± 0.025 for the second.

Going from TVILQRNPKIIV to TVLHLCMMTFLI, the protein stability index falls from 0.652 ± 0.058 to 0.576 ± 0.0084.

TVLPAPYRSLYR and TVNIIREEKAGG are within error of each other in protein stability index: 0.714 ± 0.1 for the first, 0.68 ± 0.031 for the second.

TVVTIGAHIGPR and TVWCRLKGEGRS are within error of each other in protein stability index: 0.78 ± 0.048 for the first, 0.737 ± 0.084 for the second.

First: TWARRAHALRCR
Second: TWIRIEQKTEVR
The protein stability index of the first is lower: 0.493 ± 0.015 for the first, 0.631 ± 0.017 for the second.

TWQWGAFNRIKG and TWSLLHDTQTWD are within error of each other in protein stability index: 0.68 ± 0.13 for the first, 0.78 ± 0.068 for the second.

TWSSLVSAVRRN and TYACRQEWRESR are within error of each other in protein stability index: 0.701 ± 0.079 for the first, 0.731 ± 0.041 for the second.

Compared with TYFIVGGCGFFG, TYRLSHFFKILP is lower in protein stability index: 0.643 ± 0.06 for the first, 0.566 ± 0.013 for the second.

TYSPPSPTPPAR and TYSTLHILLSSS are within error of each other in protein stability index: 0.656 ± 0.055 for the first, 0.602 ± 0.014 for the second.

TYTCRQVSCNAL and VAAFGGGGTNGV are within error of each other in protein stability index: 0.681 ± 0.012 for the first, 0.665 ± 0.075 for the second.

VADGEAGPLFKI and VAFLSSADLLPP are within error of each other in protein stability index: 0.644 ± 0.069 for the first, 0.676 ± 0.056 for the second.

VAGAVGSAQFER and VAGFYCQKWFSI are within error of each other in protein stability index: 0.649 ± 0.13 for the first, 0.657 ± 0.08 for the second.

VAGGGVAMVGSA and VAGLARVSLHGF are within error of each other in protein stability index: 0.619 ± 0.069 for the first, 0.6746 ± 0.0052 for the second.

VAGWGAGREAAY and VALAPLRDVPSG are within error of each other in protein stability index: 0.657 ± 0.026 for the first, 0.681 ± 0.043 for the second.

Going from VALLLGSRFDFT to VANRFRSILVRR, the protein stability index falls from 0.6627 ± 0.0023 to 0.599 ± 0.023.

Compared with VAPPRLSHGAPY, VASKVNLPVWFW is higher in protein stability index: 0.545 ± 0.061 for the first, 0.702 ± 0.021 for the second.

Compared with VAVGIEGGGWGV, VAVRGGCGDWGR is lower in protein stability index: 0.764 ± 0.032 for the first, 0.689 ± 0.021 for the second.

First: VCCAQVCICCLR
Second: VCFSCLFHESCL
The protein stability index of the first is lower: 0.58 ± 0.017 for the first, 0.726 ± 0.042 for the second.

Going from VCFSPVARRDVY to VCFVGGGGSCRD, the protein stability index falls from 0.771 ± 0.049 to 0.635 ± 0.068.

VCGLGGGQWQGV and VCGNRLSATAIT are within error of each other in protein stability index: 0.729 ± 0.028 for the first, 0.684 ± 0.084 for the second.

First: VCGQRLKDVGVG
Second: VCHYKVSFSCLL
The protein stability index of the first is lower: 0.499 ± 0.037 for the first, 0.64 ± 0.044 for the second.

VCIGGGGVVLGL and VCLATPPSTVTP are within error of each other in protein stability index: 0.645 ± 0.04 for the first, 0.619 ± 0.065 for the second.

VCLGRSEETLSS and VCLRRYGVMADV are within error of each other in protein stability index: 0.608 ± 0.15 for the first, 0.628 ± 0.015 for the second.

VCPGMLVYGRGI and VCPILMARHCVE are within error of each other in protein stability index: 0.744 ± 0.092 for the first, 0.691 ± 0.057 for the second.

VCPSPSTPPGLF and VCRSSGSFDLGI are within error of each other in protein stability index: 0.695 ± 0.019 for the first, 0.774 ± 0.064 for the second.

Compared with VCSFLSVDASPP, VCTLLWLLSLVS is lower in protein stability index: 0.699 ± 0.018 for the first, 0.573 ± 0.017 for the second.

VDEREKGSKQGK and VDTGMAAGLTFG are within error of each other in protein stability index: 0.689 ± 0.031 for the first, 0.685 ± 0.034 for the second.

VDVHWSVLCPLG and VDVSGVCEFVLG are within error of each other in protein stability index: 0.851 ± 0.098 for the first, 0.706 ± 0.1 for the second.

VDWLCGGLGGVR and VDYARECALIGG are within error of each other in protein stability index: 0.742 ± 0.11 for the first, 0.782 ± 0.11 for the second.

First: VEARKKTLNTGP
Second: VEAVSLVFLYGV
The protein stability index of the first is higher: 0.713 ± 0.033 for the first, 0.552 ± 0.012 for the second.

VEGSRDSLGCMD and VEKQFSVWSFRG are within error of each other in protein stability index: 0.679 ± 0.03 for the first, 0.68 ± 0.031 for the second.

VELALPRGSTVV and VEMVVEFKFGTS are within error of each other in protein stability index: 0.6596 ± 0.005 for the first, 0.703 ± 0.18 for the second.

Compared with VFCFRFLSFCPW, VFCPSPGPLAFA is higher in protein stability index: 0.542 ± 0.026 for the first, 0.673 ± 0.072 for the second.

VFCVFACLCIVF and VFFLSYGPFLAM are within error of each other in protein stability index: 0.522 ± 0.091 for the first, 0.5963 ± 0.0038 for the second.

VFGGAGVGGDCG and VFGKGRWDCFLI are within error of each other in protein stability index: 0.669 ± 0.012 for the first, 0.727 ± 0.073 for the second.

VFGLVGWCAGDC and VFGSGLRATGAV are within error of each other in protein stability index: 0.715 ± 0.094 for the first, 0.635 ± 0.086 for the second.

VFKNRWLGGEKV and VFLLCSLPTFWR are within error of each other in protein stability index: 0.69 ± 0.012 for the first, 0.662 ± 0.062 for the second.

VFLLSPLLVPRD and VFLVESFSPPNA are within error of each other in protein stability index: 0.647 ± 0.11 for the first, 0.701 ± 0.029 for the second.

First: VFPLWLRRPFPF
Second: VFTALALISYMQ
The protein stability index of the first is higher: 0.695 ± 0.041 for the first, 0.5917 ± 0.0022 for the second.

Going from VFVGLFCVLGRV to VFVRVVGDLRWE, the protein stability index rises from 0.523 ± 0.0079 to 0.578 ± 0.045.

VGAGAGGGGWVL and VGAGGLWCGGGY are within error of each other in protein stability index: 0.782 ± 0.017 for the first, 0.83 ± 0.031 for the second.

VGDCVVRGLWLS and VGERGGIGARSG are within error of each other in protein stability index: 0.639 ± 0.03 for the first, 0.673 ± 0.021 for the second.

Compared with VGFGTGGAVGVE, VGFPLVSSPLRL is lower in protein stability index: 0.687 ± 0.041 for the first, 0.566 ± 0.059 for the second.

Going from VGGAPLVSACCI to VGGEWGLGVRPR, the protein stability index rises from 0.596 ± 0.022 to 0.703 ± 0.014.

VGGGGLSGGAER and VGGGGRRGKVWG are within error of each other in protein stability index: 0.678 ± 0.0093 for the first, 0.649 ± 0.035 for the second.

VGGIGGWFCRGR and VGGKSVVRAESS are within error of each other in protein stability index: 0.73 ± 0.13 for the first, 0.645 ± 0.013 for the second.

VGGLGRGTGSGP and VGGTSWGIEKSS are within error of each other in protein stability index: 0.683 ± 0.096 for the first, 0.649 ± 0.052 for the second.

VGGVGEWCLVRL and VGGVVGVGSVGV are within error of each other in protein stability index: 0.6746 ± 0.0046 for the first, 0.775 ± 0.14 for the second.

VGGWGGVGTCVW and VGHGGCCGWGCG are within error of each other in protein stability index: 0.711 ± 0.047 for the first, 0.786 ± 0.1 for the second.

VGKQRISPSSPS and VGKRGQRRVARL are within error of each other in protein stability index: 0.664 ± 0.018 for the first, 0.692 ± 0.021 for the second.

First: VGLFGLCRVFGM
Second: VGLFMGSPFMET
The protein stability index of the first is lower: 0.646 ± 0.023 for the first, 0.693 ± 0.0087 for the second.

VGLFRESLFRRG and VGLSVRFPVANH are within error of each other in protein stability index: 0.714 ± 0.072 for the first, 0.673 ± 0.037 for the second.

VGMGAWVQQIVL and VGQCVWRVGRSS are within error of each other in protein stability index: 0.666 ± 0.043 for the first, 0.69 ± 0.044 for the second.

VGRGGGGWRLEG and VGRGGGVWRLEG are within error of each other in protein stability index: 0.694 ± 0.078 for the first, 0.699 ± 0.045 for the second.

VGRGGVRRLLQT and VGRIGNWRFGAG are within error of each other in protein stability index: 0.709 ± 0.037 for the first, 0.695 ± 0.0084 for the second.
